Assay results published in paper PMC12884786, “Evolution of Multivalent Aptamer Corona for High‐Throughput Multiplexed Detection of Multiple Cancers”.

How the values were obtained:
Experiment in all cases: SPR; 5 mM Mg2+; SPR (Biacore 8K, CM5 chip, protein immobilized): DPBS with 5 mM Mg2+, 25 C; aptamer 0-1000 nM; pH not stated
Settings in all cases: protein: commercial
[1] = biological target: T1, serum amyloid A2 (human, UniProt P0DJI9 19-122)
T1 sequence: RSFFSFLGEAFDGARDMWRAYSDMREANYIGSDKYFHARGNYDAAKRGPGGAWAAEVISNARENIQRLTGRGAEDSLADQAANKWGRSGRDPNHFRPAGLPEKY

[2] = biological target: complement C1q subcomponent subunit B (human, UniProt P02746 28-253)
Chain of complement C1q subcomponent subunit B (P02746 28-253): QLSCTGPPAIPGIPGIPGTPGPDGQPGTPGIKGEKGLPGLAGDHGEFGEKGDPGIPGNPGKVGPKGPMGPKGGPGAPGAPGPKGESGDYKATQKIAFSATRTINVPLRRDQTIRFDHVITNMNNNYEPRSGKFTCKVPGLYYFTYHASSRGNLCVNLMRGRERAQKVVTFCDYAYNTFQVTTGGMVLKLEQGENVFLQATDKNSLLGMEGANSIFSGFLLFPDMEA

[3] = biological target: T2, histidine-rich glycoprotein (human, UniProt P04196 19-525)
T2 sequence: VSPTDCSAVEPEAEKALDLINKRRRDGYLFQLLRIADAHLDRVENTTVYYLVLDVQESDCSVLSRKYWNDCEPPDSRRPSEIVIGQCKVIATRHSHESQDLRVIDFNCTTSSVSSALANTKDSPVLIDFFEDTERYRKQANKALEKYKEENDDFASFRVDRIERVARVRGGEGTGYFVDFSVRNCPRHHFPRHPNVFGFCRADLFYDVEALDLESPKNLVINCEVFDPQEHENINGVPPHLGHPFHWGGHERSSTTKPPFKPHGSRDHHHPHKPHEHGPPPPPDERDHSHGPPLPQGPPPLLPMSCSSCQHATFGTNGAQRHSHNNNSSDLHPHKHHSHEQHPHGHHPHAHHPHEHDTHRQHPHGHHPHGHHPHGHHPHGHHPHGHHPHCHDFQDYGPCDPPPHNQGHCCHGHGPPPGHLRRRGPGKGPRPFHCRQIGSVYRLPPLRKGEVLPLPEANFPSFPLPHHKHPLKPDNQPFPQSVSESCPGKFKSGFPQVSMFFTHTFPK

[4] = biological target: apolipoprotein C-III (human, UniProt P02656 21-99)
Chain of apolipoprotein C-III (P02656 21-99): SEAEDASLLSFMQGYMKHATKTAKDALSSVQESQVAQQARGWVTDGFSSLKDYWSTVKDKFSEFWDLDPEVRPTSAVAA

[5] = biological target: complement factor H-related protein 1 (human, UniProt Q03591 19-330)
Chain of complement factor H-related protein 1 (Q03591 19-330): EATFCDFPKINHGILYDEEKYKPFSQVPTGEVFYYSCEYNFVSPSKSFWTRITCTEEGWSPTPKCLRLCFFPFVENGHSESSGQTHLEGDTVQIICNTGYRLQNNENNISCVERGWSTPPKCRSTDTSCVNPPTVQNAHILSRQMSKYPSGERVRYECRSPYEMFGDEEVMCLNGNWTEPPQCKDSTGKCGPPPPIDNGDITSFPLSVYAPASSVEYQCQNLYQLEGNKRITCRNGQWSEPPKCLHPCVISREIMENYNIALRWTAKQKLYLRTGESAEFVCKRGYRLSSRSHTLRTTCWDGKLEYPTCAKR

[6] = biological target: T3, vitamin K-dependent protein S (human, UniProt P07225 42-676)
T3 sequence: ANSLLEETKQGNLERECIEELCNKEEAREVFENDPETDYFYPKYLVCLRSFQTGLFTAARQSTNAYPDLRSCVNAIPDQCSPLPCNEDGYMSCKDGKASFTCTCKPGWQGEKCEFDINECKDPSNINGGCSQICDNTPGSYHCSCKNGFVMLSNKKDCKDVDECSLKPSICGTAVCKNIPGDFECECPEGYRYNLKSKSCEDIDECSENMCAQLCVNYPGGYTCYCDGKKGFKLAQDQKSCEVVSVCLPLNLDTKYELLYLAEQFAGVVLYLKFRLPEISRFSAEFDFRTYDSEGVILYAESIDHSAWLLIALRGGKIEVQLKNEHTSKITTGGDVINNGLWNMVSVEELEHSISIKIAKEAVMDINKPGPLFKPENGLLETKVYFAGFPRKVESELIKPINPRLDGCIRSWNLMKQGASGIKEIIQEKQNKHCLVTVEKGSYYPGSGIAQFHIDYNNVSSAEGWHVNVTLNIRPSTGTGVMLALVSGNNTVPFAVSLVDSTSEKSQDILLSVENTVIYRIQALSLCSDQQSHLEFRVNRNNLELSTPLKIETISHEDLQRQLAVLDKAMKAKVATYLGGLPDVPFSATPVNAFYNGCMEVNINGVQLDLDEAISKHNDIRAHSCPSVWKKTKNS

B1: OV10 (ssDNA)
DNA: CAGCACCGTCAACTGAATGAGGTGGGAGGGAGGGGTTGACCTTGCGTGGTGATGCGATGGAGATGT
- binding result [1]: binds

B2: OV2 (ssDNA)
DNA: CAGCACCGTCAACTGAATGTGGGTGGGTGGGTGGTAAGTTGTGCCGACGTGATGCGATGGAGATGT
- binding result [2]: binds

B3: OV8 (ssDNA)
DNA: CAGCACCGTCAACTGAATGAGTCGCGGGTGGGTGGGTGGCCTTGCTCGGTGATGCGATGGAGATGT
- binding result [3]: binds

B4: CRC4 (ssDNA)
DNA: CAGCACCGTCAACTGAATGCTGAGGGCGGGTGGGTGGCACATTCGATGGTGATGCGATGGAGATGT
- binding result [4]: binds

B5: CRC5 (ssDNA)
DNA: CAGCACCGTCAACTGAATCCTGCGGGCGGGTGGGTGGTTGGATTCTTGGTGATGCGATGGAGATGT
- binding result [5]: binds

B6: CRC7 (ssDNA)
DNA: CAGCACCGTCAACTGAATCGGCGGGTGGGTGGGCGGAGATTTAACGTCGTGATGCGATGGAGATGT
- binding result [6]: binds
